What all share (test): cell-based or functional assay
In assay [1] the target is spike protein of live SARS-CoV-2 (2019-nCoV/IDF0372/2020) (SARS-CoV-2, UniProt P0DTC2 14-1273).
The target in assay [2] is T1, SARS-CoV-2 spike protein, wild type (Wuhan) (SARS-CoV-2, UniProt P0DTC2 14-1273).
Assay [3] has as its target T1, SARS-CoV-2 spike protein, wild type …. The source holds these as a separate data set.

Bounds are passed on as bounds.

B1: vS07_19G10 (designed binder)
chain: MRGSHHHHHHGSDLGNKLLDAAWVGQDDEVRILLAAGADVNAKDWQGETPLHLAATKGHLEIVEVLLKAGADVNAKDVVGYTPLHVAASQGHLEIVEVLLKAGADVNAQDVHGYTPADLAAQAGHEDIAEVLQKAA
notes: also called R2a
With B1, the “protection of Vero E6 cells from SARS-CoV-2 cytopathic effect” value in assay [1] stood at 100 nM.

B2: ALE033 (designed binder)
chain: MRGSHHHHHHGSDLGKKLLEAARAGQDDEVRELLKAGADVNAKDYFSHTPLHLAARNGHLKIVEVLLKAGADVNAKDFAGKTPLHLAANEGHLEIVEVLLKAGADVNAQDIFGKTPADIAADAGHEDIAEVLQKAAGSPTPTPTTPTPTPTTPTPTPTGSDLGKKLLEAARAGQDDEVRELLKAGADVNAKDYFSHTPLHLAARNGHLKIVEVLLKAGADVNAKDFAGKTPLHLAANEGHLEIVEVLLKAGADVNAQDIFGKTPADIAADAGHEDIAEVLQKAAGSPTPTPTTPTPTPTTPTPTPTGSDLGKKLLQAARAGQLDEVRELLKAGADVNAKDREGITPLHLAAQHGHLEIVEVLLKAGADVNAKDVWGRTPLHLAAWQGHLEIVEVLLKAGADVNAKDLAGATPLHVAALYGHLEIVEVLLKAGADVNAQDKSGKTPADLAARAGHQDIAEVLQKAAGSPTPTPTTPTPTPTTPTPTPTGSDLGKKLLQAARAGQLDEVRELLKAGADVNAKDREGKTPLHVAAQEGHLEIVEVLLKAGADVNAKDVWGRTPLHLAAWIGHLEIVEVLLKAGADVNAKDVSGATPLHAAALHGHLEIVEVLLNAGADVNAQDKSGKTPADLAARAGHQDIAEVLQKAAGSPTPTPTTPTPTPTTPTPTPTGSDLGKKLLQAARAGQLDEVRELLKAGADVNAKDREGITPLHLAAQHGHLEIVEVLLKAGADVNAKDVWGRTPLHLAAWQGHLEIVEVLLKAGADVNAKDLAGATPLHVAALYGHLEIVEVLLKAGADVNAQDKSGKTPADLAARAGHQDIAEVLQKAA
On to B2, for which the “IC50, SARS-CoV-2 VSV pseudovirus neutralization (luciferase)” value (from here on “IC50 … (luciferase)”) in assay [2] stood at 0.125 nM.

B3: vS07_14G03 (designed binder)
chain: MRGSHHHHHHGSDLGQKLLHAAQYGQDDEVRILLAAGADVNAKDKQGNTPLHIAAFHGHLEIVEVLLKAGADVNAKDQWGLTPLHLAAAWGHLEIVEVLLKAGADVNAQDNYGQTPADLAAESGHEDIAEVLQKAA
notes: also called S2a
In the case of B3, the “VSV-SARS-CoV-2 IC50” value in assay [3] is less than 100 nM.

B4: ALE030 (designed binder)
chain: MRGSHHHHHHGSDLGKKLLEAARAGQDDEVRELLKAGADVNAKDYFSHTPLHLAARNGHLKIVEVLLKAGADVNAKDFAGKTPLHLAANEGHLEIVEVLLKAGADVNAQDIFGKTPADIAADAGHEDIAEVLQKAAGSPTPTPTTPTPTPTTPTPTPTGSDLGKKLLEAARAGQDDEVRELLKAGADVNAKDYFSHTPLHLAARNGHLKIVEVLLKAGADVNAKDFAGKTPLHLAANEGHLEIVEVLLKAGADVNAQDIFGKTPADIAADAGHEDIAEVLQKAAGSPTPTPTTPTPTPTTPTPTPTGSDLGKKLLQAARAGQLDEVRELLKAGADVNAKDREGITPLHLAAQHGHLEIVEVLLKAGADVNAKDVWGRTPLHLAAWQGHLEIVEVLLKAGADVNAKDLAGATPLHVAALYGHLEIVEVLLKAGADVNAQDKSGKTPADLAARAGHQDIAEVLQKAAGSPTPTPTTPTPTPTTPTPTPTGSDLGNKLLDAAWVGQDDEVRILLAAGADVNAKDWQGETPLHLAATKGHLEIVEVLLKAGADVNAKDVVGYTPLHVAASQGHLEIVEVLLKAGADVNAQDVHGYTPADLAAQAGHEDIAEVLQKAAGSPTPTPTTPTPTPTTPTPTPTGSDLGKKLLQAARAGQLDEVRELLKAGADVNAKDREGKTPLHVAAQEGHLEIVEVLLKAGADVNAKDVWGRTPLHLAAWIGHLEIVEVLLKAGADVNAKDVSGATPLHAAALHGHLEIVEVLLNAGADVNAQDKSGKTPADLAARAGHQDIAEVLQKAA
With B4, in assay [2], the “IC50 … (luciferase)” value was found to be 0.119 nM.

B5: ALE038 (designed binder)
chain: MRGSHHHHHHGSDLGKKLLEAARAGQDDEVRELLKAGADVNAKDYFSHTPLHLAARNGHLKIVEVLLKAGADVNAKDFAGKTPLHLAANEGHLEIVEVLLKAGADVNAQDIFGKTPADIAADAGHEDIAEVLQKAAGSPTPTPTTPTPTPTTPTPTPTGSDLGKKLLEAARAGQDDEVRELLKAGADVNAKDYFSHTPLHLAARNGHLKIVEVLLKAGADVNAKDFAGKTPLHLAANEGHLEIVEVLLKAGADVNAQDIFGKTPADIAADAGHEDIAEVLQKAAGSPTPTPTTPTPTPTTPTPTPTGSDLGKKLLQAARAGQLDEVRELLKAGADVNAKDREGKTPLHVAAQEGHLEIVEVLLKAGADVNAKDVWGRTPLHLAAWIGHLEIVEVLLKAGADVNAKDVSGATPLHAAALHGHLEIVEVLLNAGADVNAQDKSGKTPADLAARAGHQDIAEVLQKAAGSPTPTPTTPTPTPTTPTPTPTGSDLGKKLLQAARAGQLDEVRELLKAGADVNAKDREGITPLHLAAQHGHLEIVEVLLKAGADVNAKDVWGRTPLHLAAWQGHLEIVEVLLKAGADVNAKDLAGATPLHVAALYGHLEIVEVLLKAGADVNAQDKSGKTPADLAARAGHQDIAEVLQKAAGSPTPTPTTPTPTPTTPTPTPTGSDLGHKLLLAAQAGQDDEVRILLAAGADVNAKDVFGQTPLHVAAVAGHLEIVEVLLKAGADVNAKDSIGYTPLHHAARVGHLEIVEVLLKAGADVNAQDWIGITPADLAAFEGHEDIAEVLQKAA
Turning to B5, the “IC50 … (luciferase)” value in assay [2] was found to be 0.264 nM.

Source of the values: patent US20220235103A1 (Molecular Partners, published 2022).
